These results are taken from the DeepSol protein solubility set.

The nature of this series: soluble on expression in E. coli; label from the status in PepcDB or PDB records.
For the sequence “GPGSMLDFLEQLQQLASVYAICGNAVSVMAGMSDTAEELTFRSYDSLEGASYICNLNEKALHTAKASLCDNADWSSFFREVQLAFNSGRVTVQPGNAHRVAVNAAAPVSADSKGLACSMEVHCLSGSGEKCATFVLERTTEDQQKYILESMLQAHHMYNHPKEYEQKLLHIMEAKEIACTKREALDRELVALNDNLTRNKHKQKINNERKEELLKKLGGYSTENTGNPWQAIQEQQQRTAGENTKSRLPSPLGNRTCKDFDLVLFRMIKSRWLSPEQCDASSPANRVVQPYSKEDLAIQVSQLSGSRAAIWKALDSIDSWSYRVFDVQAAMSGDDYLSLSTQTHGGSLLITMYALLCMHDFLQKFKIDEQIALNWISAVEASYHGNPYHNSMHAADVLQITDFIITQGGLAKRCDLSDIQVFSALLAASIHDFDHPGINNNFHIKTGSYLATLYNDRSVLENLHVSSVFELMKNPAFNILASFSDEQHHEVRETMIEMVLATDMGSHGKYVASLKGKMQEHSSFTQTAEQNLCLAIALKMADISNCGRPLDIYLRWGAKVSDEFYQQGDRERNLGLECSPFMDRLQPSLAKSQIAFMNYIITPFFEQVAELLPDMRFAVALVEENKAYWANHDDS”, the “soluble on expression in E. coli” value is “soluble”.
The entry for “SNAMAKITVGTENQAPIEIYYEDHGTGKPVVLIHGWPLSGRSWEYQVPALVEAGYRVITYDRRGFGKSSQPWEGYEYDTFTSDLHQLLEQLELQNVTLVGFSMGGGEVARYISTYGTDRIEKVVFAGAVPPYLYKSEDHPEGALDDATIETFKSGVINDRLAFLDEFTKGFFAAGDRTDLVSESFRLYNWDIAAGASPKGTLDCITAFSKTDFRKDLEKFNIPTLIIHGDSDATVPFEYSGKLTHEAIPNSKVALIKGGPHGLNATHAKEFNEALLLFLKD” is “soluble”.
In the case of “MGSDKIHHHHHHMLSRVAENLYWMARYLERTEDMARLINATTLLLLDLPQGAEFGWDILLQVTGDAKLYMEHYGTPEEGRIMRFLIADERNPNSVMAAIHQARENCRTFRDLLPAEFWERLNTLFLFVREHAGTSSDSRHARYAFLNEVISRRHALVGLLISSMSQDNVYQFIKLGRNMERADMTTRIVDVTSAVILPQDQGLQKTTTSSLWLGVLRALSAFEMYRRHVSVQVRSNQVVDYLLKDNKFPRSMKYCLGEMEVALAYLPNAGIPAEAVRRARRRLDALKLANLRPDLLHEYLDQAQKDLAMVHRTIHGTYFARDDTGFDGVPSGLLLNAAQA” it was “not soluble”.
Regarding “MSQSGEQRRYTLGEFFSLAGDERMELYEGTIVLMYPVPYEHEGVVANLIAEFRMALKGSPCLVFGSNLQVVLLFEDEQKGTKNVTVLPDLSIICDRTKLRQGRCYGAPDLVVEVLSPSTARNDRLLKRLYYEKAGVREYWLVDYQHKVMEKYVWQSGAFQLEDVYDAANGAAASTVFPEVRFSVKEIFAFLTS”, the “soluble on expression in E. coli” value was “not soluble”.
In the case of “MAHHHHHHMEDFLTKLKKISEQYNNLLLEKKIIDKRIANIGENIRKYEETREKSLEDVELKKNQLLKNKNKHIIMCQKMEQLNGKLNEILIRKQSIDDDEEKKVINKQIHTVNNTYVLLKHVQNLNDAMLKDEGNRYYKLITENIHSKSFSNRKTLNILNSFLRKSRANIQERGSEGAKSSTPPAAIHSANYFKIIQTNDIVQKLLDLFSGDHTALTIDKQQFLFVLLMNVLRKIACASEMAIPPEDCNSRHHVIYNFLHNKYILHL” it was “soluble”.
As to “MGSDKIHHHHHHMTNLLEASIEQAGYTSRKKVLTDVFLEVRKGELVGLIGANGAGKSTAIKAILGLSEDFKGHIAWNDCSFAYIPEHPSFYEELTLWEHLDLISTLHGIEESEFAHRAQSLLQTFSLDHVKHELPVTFSKGMQQKLMLIQAFLSKPDMYVIDEPFIGLDPISTKRFVDMLKAEKERGAGILMCTHVLDTAEKICDRFYMIEKGSLFLQGTLKDVQDKTGLEGQSLLDCFYKAVQGDRL”, the “soluble on expression in E. coli” value is given as “not soluble”.
In the case of “MAHHHHHHMADRADHYINQLNDAYALKVGGIYNHSTLASSNHNKAHTFGSMPHALIQMFEGDVVKAVEAYHKTFPEDDLYALVDFHNDVISDSLACLKAFKNKLKAVRIDTSKALIDKMFSEGEAEYGVTQNQVKRLREALDANGGKHVKITVSSGFNAKRIKEFEDENTPVDTYGVGASLLKI” it was “soluble”; in that of “MGHHHHHHSHMSFTTRSTFSTNYRSLGSVQAPSYGARPVSSAASVYAGAGGSGSRISVSRSTSFRGGMGSGGLATGIAGGLAGMGGIQNEKETMQSLNDRLASYLDRVRSLETENRRLESKIREHLEKKGPQVRDWSHYFKIIEDLRAQIFANTVDNARIVLQIDNARLAADDFRVKYETELAMRQSVENDIHGLRKVIDDTNITRLQLETEIEALKEELLFMKKNHEEEVKGLQAQIASSGLTVEVDAPKSQDLAKIMADIRAQYDELARKNREELDKYWSQQIEESTTVVTTQSAEVGAAETTLTELRRTVQSLEIDLDSMRNLKASLENSLREVEARYALQMEQLNGILLHLESELAQTRAEGQRQAQEYEALLNIKVKLEAEIATYRRLLEDGEDFNLG”, “soluble”.
The entry for “MTNTSFDNSTIVVGVAGGIAAYKSCHVVRGFKEDGANVVVVPTSAALNFVGKATFEALSGNPVSTTVFDAVDEVRHVNVGQHADLIVVAPATADLIARVAMGRADDLLTATLLVATCPIVLVPAMHAEMWSNAATRENVATLRRRGIIVMDPAHGRLTGADTGPGRLPDSDQIIDFAKTVARTKVMPRDLVGKKVL” is “not soluble”; for “MGSDKIHHHHHHMKKETKHFRALLADNALYYIYSNISAPLSLQELAKEAGVSAHHFHRIFKEEQGQNLYETIKSIRLQKAANLLLSNHYSTISEVAQLCGYSSSASFIKAFKGRFHLTPREWRHGGHRQYAKEILSTSSAAMASQRSFLGLEPTIKKIPAFRAVYLRHKGYNKSIALSWQKLMAWGFEHQISSQARQIGIHHDNPSITPLAECRYIAALEVEEGFRAQGLLGVMEFPPTLCAVFEVQGRYGDVLGLIDYVYHEWLPQSGYEAKTIPAFALYQKNHFLDPLGNFQLDFCLPVGVV” it is “not soluble”.
Consider “MSSDPWGRVDETGTVYVRTADGEQVVGSWQAGSPDEALAYFERKYEGLVVEIGLLEKRVKTTDLSAKDAQTAIDHIREQVDAHHAVGDLDVLRKRLDKLVETVAARREERKAQRAKQSDEARHAKESLVVEAEELAQSDQWRAAGERLRSLVDTWKGLPRLDRKSDDELWHRFSHARSAFSKRRKAHFASLDAQREDARKAKEKLVAEAEALSGSTDWGPTAARYRELMGDWKAAGRAQREHEDDLWNRFRGAQDVFFAARSSVFAERDAEQSENLKLKEELAEEAEKLLPISDLKAARAAFRSLNERWEAIGHVPRDARPKVEGRMHAVERALQESEEVEWRRTNPEARARAEGLTGQLQAAVDKLQGQIEAARSAGNNAKADKLQKELDGRQALLDQALKGLHEFGG”, for which the “soluble on expression in E. coli” value is given as “not soluble”.
The entry for “MNKKHYLLYGSERYALAILRPLQAAIRARGDEAAWFFDGPGAEDLAADEQLLSVAQVRLWKPYAVITSSNAVPHFFPGVKVEVFHGFNAGKPRHVYSRGFFDLYCTTGPRDTAAFGELADRLGHFAVKQTGWPKIDPFMGEMSQALVPVRQPPVILYHSTFSPSWSAADILYDEIKRLSLRGEWRWIVTFHPKMNPDVVARYRALQSEHLCFSDNDNILELFPHVDMMCSDTSSALNEFLLTCKPVVTFKNRNPGPQLIDIDDPAQFESAIRRALSRPPELLSAIRAYADAIHPYWDGRSSERVLEAIDAFVAEGGRNRRTKPLNLWRKFKLRKRIGYWGPAWL” is “not soluble”.
Consider “MSLGLSKTIWTNPAEYLRALSPEAPVLFFSPSTLQATARRFIDGFPGMVTYAVKSNPEEVVIENLAAAGIRGYDVASPHEIRMIRRIAPDAALHYNNPVRSRSEIGVGVEMGVKSWSVDSASELAKLIELVPAEGCEIAVRFKLAVSGAAYNFGAKFGATVELAVELLRRVAEAGFIPSMTFHPGTQCTDPAAWETYIRTAAEIARDAGVTIARLNVGGGFPSHRLNGVEPELEAIFHLIDRVTDEAFGADRPLLVCEPGRGICADAFTLAARIKAVRDDAHVFLNDGVYGSLTELPMIGVIDRVAVLTPEGRRRDGETRDRIIFGPTCDSVDRLPGELPLAADVEEGDFLVFQGMGAYSAATNTRFNGFGELSMATVLSLKEGHHHHHH”, for which the “soluble on expression in E. coli” value is “soluble”.
For the sequence “MHVLTLDLAPVTPKDAPLLHRVFHLSPSYFALIGMELPTLEDVVRDLQTLEVDPRRRAFLLFLGQEPVGYLDAKLGYPEAEDATLSLLLIREDHQGRGLGRQALERFAAGLDGVRRLYAVVYGHNPKAKAFFQAQGFRYVK”, the “soluble on expression in E. coli” value was “not soluble”.
The entry for “MKLNCCGVTQIADRVERLAHTHGKTWHTWHTDQDKTLPLGVPQLMMGFTADGQADPAMQQQRNQRLGIVKSAIKAQRADIQIPKADPGADGWQHGKTIQINDPTGHLHGPATSPTPQNTNSRSTQLEHHHHHH” is “not soluble”; for “MKTIIRYFSFVMGLMLTLPSFAKEKISIMLDWYVNPDHAAIIVAQQKGFFEKNNLEVEIIEPADPALPPKLAAAEKVDLAVSYQPQLYQQVAEGLPLVRVGSLISNPLNSVVVLKKSNLKSLADLKGKKVGYSVSGFEDGLLDTMLHSIGLSNKDVELVNVNWSLSPSLLTGQVDAVIGAFRNFELNQLALEKQEGIAFFPEQYGVPAYDELILVANKNSVTDKKTSAFLTALEQATSYLQAHPNEAWQAFVSYKPNELNTPLNQLAWKDTLPFLANKPRQLDAKRYQQMAEFMQQKGLIPKALALKEYAVEIELEHHHHHH” it is “soluble”.
Regarding “MEKELVFAGFGGQGVLTLGLIVAESALELGKQVTWMPAYGPTMRGGKAYSVVKFSDESIGGPDMEEIDVLVAMNKPSLDYINLVKEGGTVVINTSAIDENVTLREDISVVKINCQELAQKVNNPK”, the “soluble on expression in E. coli” value was “not soluble”.
The entry for “MAHHHHHHMSITSRFIGGVKHLLKGGSMKYLAAGEPYCPFGEAFGLTILPEYILEDDASNLRKGYVDVYTRASDRIILNDGRFQLPPLPPASFMPLLERLEQDNVVPKSWLNNQTANLYEPGDFIRAHIDNLFVYDDIFAICSLGSNCLLRFVHVQNGEELDVMVPDRSVYIMSGPARYVYFHMVLPVEAQRFSLVFRRSIMESDGGFRPVKTPFKEIMPYRATQILNALYSKQVGGVRVSVDDDFLESADIGAFDTSRWVKRLHPLRDWSLLRQLDEDEARVEALREKRFIDVDFSWRYRELRSYYKAMEESLVSPHVAHVTPQA” is “soluble”.
On to “MQDLKVISKHYAKALKNHTKSDLALLEEIVVGLKNATEAIRQHKLNQVLAHVSLKVKKEVVFEILEKITSIKACSVLKPVMEVVLKNNRLDMLELITEELSFDSKRTLEATLLVPEKLENNELEAVQQKLQARFNAPVEITQDTWSKKGVSLSVSSLDLEIGFSKEDILKKIEKQVIQSI”, for which the “soluble on expression in E. coli” value was “not soluble”.
The entry for “MLSFEQSYAPSRNMKLLLVEPSGSYFNDSCCSEPNSPDSGFSSDDSISSDASFAERLTRSKTLPSALRRSRSKQSVKRVRFADSLGLDLENLQYFVKEDLHLQKFNIHFSTPSSSTPPPQLPHFPKQLINQPAPRLVLHNFPYRSEQEYQVKTRDSRVCVAALRASGSSIVGQVNLLNVAFDKVVVVRYTIDGWATQDEIVASYSHRLFDTEDIDAFNFTIAIPVKLSEGKCEFCVQYQVAGAEFWDNNGGDNYIVNVSTKGPSSPFTRCYGASTGLPDAPRGSTRRQQQRRWGRALEESDEETPYVSSAPRRGAHFH” is “not soluble”; for “GMELKDIMHILEDMKVGVFATLDEYGNPHARHAHITAANEEGIFFMTSPETHFYDQLMGDQRVAMTAISEEGYLIQVVRVEGTARPVENDYLKTVFADNPYYQHIYKDESSDTMQVFQIYAGHGFYHSLTQGHKYIFSIGQGEHSEVRAL” it is “soluble”.
